In publication PMC6082870:

B1: lysyl hydroxylase 3 (LH3/PLOD3): T672N (protein)
parent chain: MTSSGPGPRFLLLLPLLLPPAASASDRPRGRDPVNPEKLLVITVATAETEGYLRFLRSAEFFNYTVRTLGLGEEWRGGDVARTVGGGQKVRWLKKEMEKYADREDMIIMFVDSYDVILAGSPTELLKKFVQSGSRLLFSAESFCWPEWGLAEQYPEVGTGKRFLNSGGFIGFATTIHQIVRQWKYKDDDDDQLFYTRLYLDPGLREKLSLNLDHKSRIFQNLNGALDEVVLKFDRNRVRIRNVAYDTLPIVVHGNGPTKLQLNYLGNYVPNGWTPEGGCGFCNQDRRTLPGGQPPPRVFLAVFVEQPTPFLPRFLQRLLLLDYPPDRVTLFLHNNEVFHEPHIADSWPQLQDHFSAVKLVGPEEALSPGEARDMAMDLCRQDPECEFYFSLDADAVLTNLQTLRILIEENRKVIAPMLSRHGKLWSNFWGALSPDEYYARSEDYVELVQRKRVGVWNVPYISQAYVIRGDTLRMELPQRDVFSGSDTDPDMAFCKSFRDKGIFLHLSNQHEFGRLLATSRYDTEHLHPDLWQIFDNPVDWKEQYIHENYSRALEGEGIVEQPCPDVYWFPLLSEQMCDELVAEMEHYGQWSGGRHEDSRLAGGYENVPTVDIHMKQVGYEDQWLQLLRTYVGPMTESLFPGYHTKARAVMNFVVRYRPDEQPSLRPHHDSSTFTLNVALNHKGLDYEGGGCRFLRYDCVISSPRKGWALLHPGRLTHYHEGLPTTWGTRYIMVSFVDP
B2: lysyl hydroxylase 3 (LH3/PLOD3): R714N (protein)
parent chain: B1 parent chain
B3: lysyl hydroxylase 3 (LH3/PLOD3): W148N-L150T (protein)
parent chain: B1 parent chain

Legend:
[1] = analytical size exclusion chromatography; conditions: glycan gained; control: wild type
[2] = lysyl hydroxylase activity, Succinate-Glo luminescence; conditions: glycan gained; control: wild type

Protein	oligomerisation [1]	enzymatic_activity [2]
B1	decreases	–
B2	decreases	–
B3	no change	no change
